{"source": "paper PMC9814550", "about": "“Exo-selective intermolecular Diels–Alder reaction by PyrI4 and AbnU on non-natural substrates” (Communications Chemistry, 2021)", "proteins": {"B1": {"name": "AbnU (Parafrankia colletiae) (protein)", "chain": "MSVVHEGIWEPQIRNEQNVNVADPQVGQIGSYYDELYDSSRELLGITIGRYEIRYKKVGGAVLTYYSEDLFLRDGIIHAEGWADFNDVKNGVWVGYPAVGLDGVYRGLDGRREWRVIEPDQPVEARISLHG", "notes": "N-terminal poly-His tag, pET28a(+), codon-optimised synthetic gene, E. coli; dimer"}, "B2": {"name": "PyrI4 (Streptomyces rugosporus) (protein)", "chain": "MTTPQIDERAMEAGAAALQETIVDPGPLDVTALAVAAALAAGLHSAADDPAAALDKCIVLDELTEFAEKLVVHDRPGGIGTTVEYVEVYEDASGVRLGTATGNAVVLKMEPHMWQFHQSVSELADGSFEAVGVIDCTAMLRRMTQVLRVTGRSGRYAGKSGFMTLAISDPNQRPPHYSVQVVLC", "notes": "full length, N-terminal poly-His tag, pET28a(+), codon-optimised synthetic gene, E. coli"}}, "test_in_all_cases": "intermolecular Diels-Alder kinetics", "key": {"[1]": {"substrate": "C=C/C=C/NC(=O)OCc1ccc(C(=O)OC)cc1", "format": "biochemical, Parafrankia colletiae", "settings": "co-substrate 2, PBS pH 7.4, 37 °C", "description": "intermolecular Diels-Alder kinetics on AbnU"}, "[2]": {"substrate": "C=C/C=C/NC(=O)OCc1ccc(C(=O)OC)cc1", "format": "biochemical, Streptomyces rugosporus", "settings": "co-substrate 2, PBS pH 7.4, 37 °C", "description": "(§1) intermolecular Diels-Alder kinetics on PyrI4"}, "[3]": {"substrate": "C=CC(=O)N(C)C", "format": "biochemical, Streptomyces rugosporus", "settings": "co-substrate 1a, PBS pH 7.4, 37 °C", "description": "as §1"}}, "data": [{"protein": "B1", "values": [{"measurement": "Km", "setting": "[1]", "value": "200 ± 10", "unit": "µM"}, {"measurement": "kcat", "setting": "[1]", "value": "1.17e-05 ± 2.8e-07", "unit": "s⁻¹"}]}, {"protein": "B2", "values": [{"measurement": "Km", "setting": "[2]", "value": "200 ± 10", "unit": "µM"}, {"measurement": "kcat", "setting": "[2]", "value": "6.39e-06 ± 5.6e-07", "unit": "s⁻¹"}, {"measurement": "Km", "setting": "[3]", "value": "100000 ± 1250", "unit": "µM"}, {"measurement": "kcat", "setting": "[3]", "value": "6.39e-06 ± 5.6e-07", "unit": "s⁻¹"}]}]}
